Consider three compounds from patent USH1453H, “N-acetyl-D-glucosamine deacetylase and a process for preparing the same” (priority 1993, dated 1995).

One data set can be described thus: Optimal pH of the enzyme. In kind it is biochemical. To be noted: at 37° C.; indole-HCl method at pH 5.6-10.8. The procedure:
The optimal pH of the enzyme of the present invention varies widely depending on the origin of the microorganism used to produce the enzyme, but usually in the range of about 4.0-9.0. For example, the optimal pH of the enzyme derived from Vibrio sp. is in the range of 7.8-8.2 as determined colorimetrically according to indole-HCl method at pH 5.6-10.8. The buffer solution used at pH 5.6-6.0 is 100 mM CH3 COOH--CH3 COONa, at pH 6.0-9.0, 100 mM […] -Na2 HPO4 is used, and at pH 9.6-10.8, 200 mM Na2 HPO4 -NaOH is used.

A further data set in a line: Stable pH of the enzyme. In kind it is physicochemical. To be noted: not less than 50% of initial activity retained, determined at 37° C. after incubation at 45° C. for 30 minutes. The procedure: The stable pH wherein not less than 50% of the initial activity of the enzyme is retained, as determined at 37° C. after incubation in a given buffer at 45° C. for 30 minutes, varies depending on the origin of the microorganism used to produce the enzyme, but usually ranges from about 3.0 to 9.0. For example, the stable pH of the enzyme derived from Vibrio sp. is in the range of about 6.0-9.0.

The nature of data set [1]: Determination of the enzymatic activity (D-glucosamine formed, indole-HCl colorimetry). In kind it is biochemical. To be noted: 37° C.; for specific activity: pH 7.8. The procedure: An enzyme solution (0.1 ml) is added to 0.3 ml of 100 mM phosphate buffer (pH 7.8) containing 0.1 ml of 1% N-acetyl-D-glucosamine as a substrate, and the resultant mixture is incubated at 37° C. for 30 minutes. The amount of D-glucosamine formed is determined colorimetrically using indole-HCl according to the method of Z. Dische and E. Borenfreund [J. Biol. Chem., 184:517 (1950)]. One unit of the enzyme is defined as the amount of the enzyme which is capable of producing 1 μmol D-glucosaminefrom N-acetyl-D-glucosamine per minute at 37° C.

Another data set relates to Mucor sp. Particulars: method using a microorganism belonging to Mucor sp.; cited from earlier work.
For data set [2], the target named is N-acetyl-D-glucosamine deacetylase (Vibrio cholerae, UniProt O32445). Put plainly: Substrate specificity of the enzyme. In kind it is biochemical, Vibrio cholerae non-01 (IFO 15429). Particulars: substrate 0.2%, 37° C., pH 7.8, one hour.
Chain of N-acetyl-D-glucosamine deacetylase (O32445 whole entry): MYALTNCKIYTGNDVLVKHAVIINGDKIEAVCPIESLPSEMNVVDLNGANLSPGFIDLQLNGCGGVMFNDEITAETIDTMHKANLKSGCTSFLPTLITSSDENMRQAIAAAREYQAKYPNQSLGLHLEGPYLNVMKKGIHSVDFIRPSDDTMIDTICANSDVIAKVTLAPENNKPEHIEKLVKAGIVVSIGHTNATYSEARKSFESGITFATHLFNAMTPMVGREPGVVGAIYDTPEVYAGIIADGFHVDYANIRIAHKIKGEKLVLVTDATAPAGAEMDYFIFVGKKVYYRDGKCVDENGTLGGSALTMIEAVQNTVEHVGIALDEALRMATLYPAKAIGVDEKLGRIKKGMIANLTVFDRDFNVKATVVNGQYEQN

On to N-acetyl-D-glucosamine deacetylase, for which the “Optimal pH” value in “Optimal pH of the enzyme” is recorded as 7.8-8.2. In addition, in the data set “Stable pH of the enzyme”, the “Stable pH” value is on record as 6.0-9.0. Further, the specific activity came to 1.22 unit/mg protein in data set [1] (listed as enzyme) and 1.22 U/mg protein in data set [1] (listed as purified enzyme). Also, the “Spec. Act.” value in data set [1] (Table 1, per purification step, pH 7.8, 30 minutes) came out at 1.22 Unit/mg.
(GlcNAc)5: in the data set with Mucor sp., the “deacetylated to the extent of” value is on record as 12-14%.
For `CC(=O)N[C@H]1C(O)O[C@H](CO)[C@@H](O)[C@@H]1O` (stereo partly drawn) [GlcNAc, N-acetyl-D-glucosamine], in data set [2], the “Enzymatic Activity” value came out at 1.22 Unit/mg and the “formation of D-glucosamine” value was “can be observed”.
